From IntAct's records for PubMed 11575918

B1: RING finger protein Z (Lymphocytic choriomeningitis virus (strain Armstrong)), P18541 (parent)
chain: MGQGKSREEKGTNSTNRAEILPDTTYLGPLSCKSCWQKFDSLVRCHDHYLCRHCLNLLLSVSDRCPLCKYPLPTRLKISTAPSSPPPYEE

Variants of: B1
Conditions: with if4e_human EIF4E

Variant | effect of a mutation on the interaction
MGQGKSREEKGTNSTNRAEILPDTTYLGPLSCKSCWQKFDSLVRCHDHYLCRHCLNLLLSVSDRAPLAKYPLPTRLKISTAPSSPPPYEE [C65A;C68A] | decreasing interaction
MGQGKSREEKGTNSTNRAEILPDTTYLGPLSGKSFWQKFDSLVRCHDHYLCRHCLNLLLSVSDRCPLCKYPLPTRLKISTAPSSPPPYEE [C32G;C35F] | decreasing interaction
